Source: patent US20110086767A1, “MUTANTS OF GLYCOSIDE HYDROLASES AND USES THEREOF FOR SYNTHESIZING COMPLEX OLIGOSACCHARIDES AND DISACCHARIDE INTERMEDIATES” (Institut Pasteur, priority 2008, published 2011)
“Also recorded” adds a separate entry of the source.

Tests used:
Type in all cases: biochemical
[1] = Kinetic parameters towards sucrose donor
Method: Enzyme assays were carried out in a total volume of 2 mL containing pure enzyme (0.073 mg, 0.153 mg and 0.092 mg when using A289P-F290C, A289P-F2901 and A289P-F290L, respectively).
Kinetic studies of AS variants were performed in the presence of sucrose (0-500 mM). At regular time intervals (2-5 min), aliquots (200 μL) were removed, heated (95° C., 2 min) and centrifuged (18000 g, 5 min) All the samples were filtered on a 0.22 μm membrane and analyzed using HPLC material previously described. The initial rate of sucrose consumed, corresponding to the initial rate of fructose released, was expressed in mole of fructose released per minute and per gram of enzyme. The kinetic parameters kcat and Km were calculated using Eadie-Hofstee plot.

[2] = Kinetics of F290K and ASNPwt towards sucrose
Method: Enzyme assays were carried out in a total volume of 2 mL containing pure enzyme (0.115 mg and 0.106 mg when using ASNPwt and F290K, respectively). Catalytic efficiency (Eff=kcat/KM) of ASNPwt and F290K variant was determined with both sucrose (D=Donor) and α-D-GlcpNAc-OAll (A=Acceptor) as variable substrates. […] For the determination of the catalytic efficiency for A, D was held constant at 250 mM and A was varied between 0 and 250 mM. Experiments were performed until A and D solubility limits were reached. For each experiment, the reaction velocity corresponding to the acceptor glucosylation was determined by the formation of α-D-Glcp-(1→4)-α-D-GlcpNAc-OAll (called Vi(Dp2)), corresponding to the kinetics of the reaction of interest.
Initial velocities were fitted to the Michaelis-Menten equation using Sigma-Plot. As saturation was not achieved with the mutant, efficiency was calculated by linear regression analysis of the velocity versus substrate concentration plot. Aliquots (200 μL) were removed between 0 and 60 min (at which time product formation was still linear with respect to time), heated at 95° C. for 5 min and centrifuged at 18 000 g for 5 min. The final mixtures were filtered on a 0.22 um membrane and analyzed using HPLC material previously described. […]

[3] = Enzymatic glucosylation of D-GlcpNAc derivatives: β-D-GlcpNAc-OAll; conditions: sucrose:acceptor 1:1 (146 mM); estimated according to peak areas
Method: (§1) The mutant F290K and the ASNPwt were tested on other D-GlcNAc derivatives (α-D-GlcpNAc-OMe, β-D-GlcpNAc-OMe, β-D-GlcpNAc-Oallyl and D-GlcNHTCA) used as potential acceptors. The enzymatic reaction was carried out using sucrose as donor and D-GlcNAc derivative as acceptor in a 1:1 ratio (146 mM)
(§2) Efficiency of the glucosylation reaction was evaluated by HPLC analysis of the acceptor reaction product synthesized a Biorad HPLC Carbohydrate Analysis column (HPX-87K column (300×7.8 mm))
(§3) Percentages of glucosylation rates were estimated according to peak areas as no reference was available.

[4] = Enzymatic glucosylation of D-GlcpNAc derivatives: α-D-GlcpNAc-OMe; conditions: sucrose:acceptor 1:1 (146 mM); estimated according to peak areas
Method: as §1, §2, §3

[5] = HPLC screening of the single-mutant amylosucrase library for glucosylation of D-GlcpNAc; conditions: acceptor D-GlcpNAc
Method: The protocol was established to enable the rapid identification of clones for which D-GlcpNAc glucosylation was improved. To obtain higher amounts of enzymes and facilitate detection of glucosylated compounds upon HPLC screening, mutants were produced in 96-DeepWell Format plates. Storage microplates containing monomutants were thawed and replicated to inoculate a starter culture in 96-well microplates containing, in each well, 150 μL LB medium supplemented with ampicillin (100 μg/mL). After growth for 24 h at 30° C. under agitation (200 rpm), plates were duplicated into 96-Deep Well plates containing, in each well, 1.1 mL LB medium supplemented with ampicillin (100 μg/mL) and IPTG (1 mM) to induce GST-AS expression. Cultures were then grown for 24 h at 30° C. under agitation (200 rpm). Plates were centrifuged (20 min, 3000 g, 4° C.) and the supernatant was removed. The cell pellet was resuspended in 200 μL of lysozyme (0.5 mg/mL), followed by freezing at −80° C. for 8 to 12 h. After thawing at room temperature, 100 μL of sucrose and 100 μL of acceptor (each at a final concentration of 73 mM) were added to each well. Enzymatic reaction was incubated at 30° C. during 24 h under agitation. The DeepWell plates were then centrifuged (20 min, 3000 g, 4° C.) and 300 μL of the supernatant was transferred to a filter micro-plate (PVDF 0.2 μm) to be clarified. […]
Efficiency of the glucosylation reaction was evaluated by HPLC analysis of the acceptor reaction product synthesized when using D-GlcpNAc as acceptor using a Dionex P 680 series pump, a Shodex RI 101 series refractometer, a Dionex UVD 340 UV/Vis detector and an autosampler HTC PAL. […]
For each of the 7 selected positions, 19 single mutants were generated (corresponding to each possible amino acid change). […] Both sucrose consumption and disaccharide formation were determined in order to calculate the glucosylation rate defined as the molar ratio of monoglucosylated acceptor versus/sucrose consumed.

[6] = Kinetic parameters towards α-D-GlcpNAc-OAll acceptor; conditions: 250 mM for both sucrose and α-D-GlcpNAc-OAll
Method: Enzyme assays were carried out in a total volume of 2 mL containing pure enzyme (0.037 mg, 0.076 mg and 0.046 mg when using A289P-F290C, A289P-F2901 and A289P-F290L, respectively).
The kcat/Km (α-D-GlcpNAc-OAll) value was calculated from the initial rate of formation of desired disaccharide (α-D-Glcp-(1→4)-α-D-GlcpNAc-OAll), corresponding to the initial rate of α-D-GlcpNAc-OAll consumed. As saturation was not achieved with the mutants, efficiency was calculated by linear regression analysis of the velocity versus substrate concentration plot.

B1: F290K: single mutant F290K of N. polysaccharea amylosucrase 1G5A (protein)
chain: SPNSQYLKTRILDIYTPEQRAGIEKSEDWRQFSRRMDTHFPKLMNELDSVYGNNEALLPMLEMLLAQAWQSYSQRNSSLKDIDIARENNPDWILSNKQVGGVCYVDLFAGDLKGLKDKIPYFQELGLTYLHLMPLFKCPEGKSDGGYAVSSYRDVNPALGTIGDLREVIAALHEAGISAVVDFIFNHTSNEHEWAQRCAAGDPLFDNFYYIFPDRRMPDQYDRTLREIFPDQHPGGFSQLEDGRWVWTTFNSFQWDLNYSNPWVFRAMAGEMLFLANLGVDILRMDAVAKIWKQMGTSCENLPQAHALIRAFNAVMRIAAPAVFFKSEAIVHPDQVVQYIGQDECQIGYNPLQMALLWNTLATREVNLLHQALTYRHNLPEHTAWVNYVRSHDDIGWTFADEDAAYLGISGYDHRQFLNRFFVNRFDGSFARGVPFQYNPSTGDCRVSGTAAALVGLAQDDPHAVDRIKLLYSIALSTGGLPLIYLGDEVGTLNDDDWSQDSNKSDDSRWAHRPRYNEALYAQRNDPSTAAGQIYQDLRHMIAVRQSNPRFDGGRLVTFNTNNKHIIGYIRNNALLAFGNFSEYPQTVTAHTLQAMPFKAHDLIGGKTVSLNQDLTLQPYQVMWLEIA
V250mM (initial rate of sucrose consumption) ([1]; 250 mM sucrose): 110 µmol/min/g
behaviour (at high concentration) ([1]; sucrose donor alone): no kinetic saturation; also recorded: linear
decrease of kcat/Km in the presence of sucrose alone ([2]; sucrose alone, compared with ASNPwt, linear regression): 40 fold
saturation with sucrose ([2]; sucrose varied between 0 and 600 mM): could not be saturated
glucosylation of acceptor β-D-GlcpNAc-OAll [3]: > 95%
glucosylation of acceptor α-D-GlcpNAc-OMe [4]: > 95%
increase of glucosylation rate compared to the wild type [5]: 45 fold
V250mM (initial rate of acceptor consumption) [6]: 6690 µmol/min/g
